# In patent publication US12258605B2, “Alkane oxidation by modified hydroxylases” (The California Institute of Technology, priority 2005, dated 2025):
# Residue numbers refer to the chain shown, from its start. Names may count otherwise. Marks after values point to notes of the source that are not given here.
# B1: 35-E11-E464R: P450 BM-3 variant, SEQ ID NO:8; 35-E11 with E464R (protein)
# chain: TIKEMPQPKTFGELKNLPLLNTDKPVQALMKIADELGEIFKFEAPGCVTRYLSSQRLIKEACDESRFDKNLSQALKFFRDFSGDGLFTSWTHEINWKKAHNILLPSFSQQAMKGYHAMMVDIAVQLVQKWERLNADEHIEVSEDMTRLTLDTIGLCGFNYRFNSFYRDQPHPFIISMVRALDEVMNKLQRANPDDPAYDENKRQCQEDIKVMNDLVDKIIADRKARGEQSDDLLTQMLNGKDPETGEPLDDGNISYQIITFLIAGHETTSGLLSFALYFLVKNPHVLQKVVEEAARVLVDPVPSYKQVKQLKYVGMVLNEALRLWPTFPAFSLYAKEDTVLGGEYPLEKGDEVMVLIPQLHRDKTIWGDDVEEFRPERFENPSAIPQHAFKPFGNGQRACIGQQFALHEATLVLGMMLKHFDFEDHTNYELDIKETLTLKPEGFVVKAKSKKIPLGGIPSPSTRQSAKKVRKKAENAHNTPLLVLYGSNMGTAEGTARDLADIAMSKGFAPQVATLDSHAGNLPREGAVLIVTASYNGHPPDNAKQFVDWLDQASADEVKGVRYSVFGCGDKNWATTYQKVPAFIDETLAAKGAENIADRGEADASDDFEGTYEEWREHMWSDVAAYFNLDIENSEDNKSTLSLQFVDSAADMPLAKMHGAFSTNVVASKELQQPGSARSTRHLEIELPKEASYQEGDHLGVIPRNYEGTVNRVTARFGLDASQQIRLEAEEEKLAHLPLAKTVSVEELLQYVELQDPVTRTQLRAMAAKTVCPPHKVELEALLEKQAYKEQVLAKRLTMLELLEKYPACEMKFSEFIALLPSIRPRYYSISSSPRVDEKQASITVSVVSGEAWSGYGEYKGIASNYLAELQEGDTITCFISTPQSEFTLPKDPETPLIMVGPGTGVAPFRGFVQARKQLKEQGQSLGEAHLYFGCRSPHEDYLYQEELENAQSEGIITLHTAFSRMPNQPKTYVQHVMEQDGKKLIELLDQGAHFYICGDGSQMAPAVEATLMKSYADVHQVSEADARLWLQQLEEKGRYAKDVWAG
# modifications: mutant P450 35-E11-E464R protein sequence
# notes: 35-E11 with E464R
# B2: 21-4G: P450 BM-3 variant, SEQ ID NO:13; 35-E11 plus D631N (protein)
# chain: B1 chain with R464G, D631N
# modifications: Mutant P450 21-4G protein sequence
# notes: 35-E11 plus D631N
# B3: 35-E11-E464Y: P450 BM-3 variant, SEQ ID NO:9; 35-E11 with E464Y (protein)
# chain: B1 chain with R464Y
# modifications: mutant P450 35-E11-E464Y protein sequence
# notes: 35-E11 with E464Y
# B4: 23-1D: P450 BM-3 variant, SEQ ID NO:12; 35-E11 plus Q645R, P968L (protein)
# chain: B1 chain with R464G, Q645R, P968L
# modifications: Mutant P450 23-1D protein sequence
# notes: 35-E11 plus Q645R, P968L
# B5: 35-E11-E464T: P450 BM-3 variant, SEQ ID NO:10; 35-E11 with E464T (protein)
# chain: B1 chain with R464T
# modifications: mutant P450 35-E11-E464T protein sequence
# notes: 35-E11 with E464T
# Test: Methane to methanol conversion (alcohol oxidase/Purpald)
# Type: biochemical
# Conditions: methane to methanol
# Procedure: The 35-E11 variant was tested for the ability to convert methane to methanol using the method of Anthon and Barrett (Agric. Food Chem., 52:3749 (2004)). The method was optimized so that it could detect methanol concentrations in water as low as 10 μM.
# The mutant BM-3 enzymes described below were purified using published procedures and used as catalysts in small reactions with methane. In glass head space vials containing magnetic stirring bars, BM-3 catalyst was added to 0.1 M potassium phosphate buffer (pH=8) saturated with methane. The vials were then crimped shut and charged to 20 psi with methane. To start the biotransformation, an NADPH regeneration system consisting of NADP+, isocitrate, and isocitric dehydrogenase was added through a syringe. The reaction was allowed to stir 12-15 hours. Methanol production was measured using a coupled enzyme assay. Aliquots of the reaction were transferred to 96-well microtitre plates and reacted with the enzyme alcohol oxidase for 5 minutes at room temperature. Alcohol oxidase converts the methanol produced by the BM-3 variants into formaldehyde which can be detected with the dye Purpald. To detect formaldehyde and quench the alcohol oxidase reaction, a solution of Purpald in 2 M NaOH was added and allowed to react for one hour. The purple color that Purpald forms in the presence of formaldehyde was quantified one hour later by spectrophotometrically reading the well at 550 nm and comparing the absorbance against similarly-treated solutions of BM-3, NADPH regeneration system, and methane-free buffer spiked with known concentrations of methanol. The results of these biotransformations are reported in Table 3 and sample spectra from the colorimetric assay are shown in FIG. 7.
# Reactions for enzyme-catalyzed conversion of methane to methanol were carried out in 10 mL glass headspace vials. A 470 μL reaction mixture containing 5 μM purified BM-3 variant in 0.1 M potassium phosphate buffer (pH 8.0) was first added to the vial. The vial was immediately topped with a septum, pressurized with 30 psi of methane and shaken at 4° C. for 1 hour. […] For determination of total turnover, the reaction was allowed to proceed for 20 hours at room temperature.
# The amount of methanol product formed during the 20 hr methane reaction was quantified colorimetrically with the use of alcohol oxidase and Purpald. 190 μL of the reaction mixture is transferred onto a single cell of a 96 well plate. 10 μL of 0.05 U/μL solution of alcohol oxidase (from Pichia pastoris, purchased from Sigma-Aldrich) was added to cell and allowed to incubate at room temperature for 5 minutes. During this time, the alcohol oxidase converts the methanol into formaldehyde. Purpald (168 mM in 2 M NAOH) was then added to form a purple product with the formaldehyde in solution. The purple color was read approximately 1 hour later at 550 nm using a Spectramax Plus microtiter plate reader. The concentration of methanol was determined based on the measure absorbance in comparison to a methanol calibration curve. The methanol calibration curve was generated with several standards. Each standard contained 100 μL of a methanol solution (10, 20, 40, 60, 100 μM) and 90 μL of the methane reaction mixture described above, without the methane pressurization.
# The relative dimethyl ether (DME) activity was measured, 1 hour after treatment with Purpald, as the average net and absorbance at 550 nm from 8 microtitre plate DME reactions of the mutant compared to 8 equivalent reactions of 35-E11. All values were normalized by measuring the P450 concentration in each well with CO binding. “Asteriks” indicate criteria used to select mutants from libraries for further characterization. The oxidation rate is measured as absorbance change at 340 nm over 1 minute upon the addition of NADPH to 8 microtitre plate wells containing P450-containing cell lysate and compared to 8 equivalent reactions of 35-E11. […]
row,Molecule,Methane TTN
1,B1,12
2,B2,10
3,B3,13
4,B4,11
5,B5,11

# Test: High-throughput dimethyl ether (DME) screen
# Type: biochemical
# Conditions: relative to 35-E11; normalized to P450 concentration
# Procedure: Cell lysates for high throughput screening were prepared as described previously (Peters et al., J. Am. Chem. Soc. 125:13442 (2003); incorporated by reference herein). High-throughput dimethyl ether (DME) screens were performed in 96 well plates as described previously. Improved mutants were selected based on an increased signal compared to 9-10A (for the saturation mutagenesis libraries) and 1-12G (for the recombination library). Reactions on octane and propane were analyzed by gas chromatography as described.
# (§1) Libraries of mutants of 35-E11 were screened for phenotypes indicative of either increased product formation on small gaseous substrates slightly larger than methane. Additionally, they were screened for increased coupling of the consumption of NADPH reducing equivalents to product formation. Product formation was determined by measuring total amount of dimethyl ether hydroxylation while increased coupling was determined primarily by decreased background NADPH consumption rates (measured spectrophotometrically at 340 nm in the absence of substrate).
# The relative dimethyl ether (DME) activity was measured, 1 hour after treatment with Purpald, as the average net and absorbance at 550 nm from 8 microtitre plate DME reactions of the mutant compared to 8 equivalent reactions of 35-E11. All values were normalized by measuring the P450 concentration in each well with CO binding. “Asteriks” indicate criteria used to select mutants from libraries for further characterization. The oxidation rate is measured as absorbance change at 340 nm over 1 minute upon the addition of NADPH to 8 microtitre plate wells containing P450-containing cell lysate and compared to 8 equivalent reactions of 35-E11. All values were normalized by measuring the P450 concentration in each well with CO binding. The total turnover number (TTN) was measured as the absorbance at 550 nm of methane reactions with each mutant after treatment with alcohol oxidase and
# Screening libraries by spectroscopically monitoring NADPH consumption rates in the presence of the alkane often selects for mutants with NADPH oxidation rates highly uncoupled to product formation. This can be overcome through the use of surrogate substrates that mimic desired substrates, yet yield species when hydroxylated that are easily detected either directly or with the addition of a dye. For example, the screen for the high-throughput identification of mutant BM-3 enzymes with activity towards propane as described previously uses dimethyl ether (DME) as a propane surrogate substrate. Upon hydroxylation, it decomposes into methanol and dye-sensitive formaldehyde. In addition, hexyl methyl ether (HME) may be used as a surrogate for octane. It shares most of the physical properties of octane, including solubility in buffer, size, shape, and strength of its C—H bonds. When HME is hydroxylated at its methoxy carbon, it also produces an equivalent of formaldehyde which is visually detected at concentrations as low as 10 μM with the dye Purpald (see FIG. 25). Hexanal, the aldehyde product formed when the α-carbon of the hexyl group is hydroxylated, is practically unreactive towards Purpald at some concentrations used in the present screens. Formaldehyde is approximately 42 times more sensitive to Purpald than hexanal (see FIG. 26). This disproportionate response makes HME, in contrast to the symmetric ether DME, a regio-selective screen for terminal alkane hydroxylation.
# High-throughput screening. Single colonies were picked and inoculated by a Qpix robot (Genetix, Beaverton, OR) into 1-mL, deep-well plates containing LB (Amp*) medium (400 μL). The plates were incubated at 30° C., 250 rpm, and 80% relative humidity. After 24 h, 50 μL from this pre-culture were used to inoculate a 2-mL, deep-well plates containing […] TB (Amp^+) medium per well. Cultures were grown at 37° C., 220 rpm, and 80% relative humidity. […]
row,Molecule,Relative DME activity in screen
1,B1,0.9
2,B2,1.1
3,B3,0.8
4,B4,0.7
5,B5,0.8

# Test: Background NADPH oxidation rate in screen (cell lysate, no substrate)
# Type: biochemical
# Conditions: relative to 35-E11
# Procedure: as §1
# The relative dimethyl ether (DME) activity was measured, 1 hour after treatment with Purpald, as the average net and absorbance at 550 nm from 8 microtitre plate DME reactions of the mutant compared to 8 equivalent reactions of 35-E11. All values were normalized by measuring the P450 concentration in each well with CO binding. “Asteriks” indicate criteria used to select mutants from libraries for further characterization. The oxidation rate is measured as absorbance change at 340 nm over 1 minute upon the addition of NADPH to 8 microtitre plate wells containing P450-containing cell lysate and compared to 8 equivalent reactions of 35-E11. All values were normalized by measuring the P450 concentration in each well with CO binding. The total turnover number (TTN) was measured as the absorbance at 550 nm of methane reactions with each mutant after treatment with alcohol oxidase and […]
row,Molecule,Relative background NADPH oxidation rate
1,B1,0.6*
2,B2,0.7*
3,B3,0.7*
4,B4,0.8*
5,B5,0.7*
